{"source": "patent US20130224191A1", "about": "“NOTUM PROTEIN MODULATORS AND METHODS OF USE” (priority 2010, published 2013)", "molecules": {"B1": {"name": "hSC2.D2.2 (antibody, human IgG1, V domains shown)", "VH": "EVQLVESGGGLVQPGGSLRLSCAASGFTFSSYGMNWVRQAPGKGLEWVSYISSSTVTTYYADSVKGRFTISRDNAKNSLYLQMNSLRDEDTAVYYCSRQNWDGGYFDVWGAGTTVTVSS", "VL": "DIVMTQSPLSLPVTPGEPASISCRASKSVSSSGYSYMHWYLQKPGQSPQLLIYLASNLESGVPDRFSGSGSGTDFTLKISRVEAEDVGVYYCQHSRALPLTFGAGTKLELKR", "notes": "Humanized variable regions cloned into vectors with human IgG1 and kappa constant regions; also called humanized SC2.D2.2"}, "B2": {"name": "hNotum-Fc: recombinant human Notum fused to human IgG2 Fc, SEQ ID NO: 333 (protein)", "chain": "MYRMQLLSCIALSLALVTNSSEGRKTWRRRGQQPPPPPRTEAAPAAGQPVESFPLDFTAVEGNMDSFMAQVKSLAQSLYPCSAQQLNEDLRLHLLLNTSVTCNDGSPAGYYLKESRGSRRWLLFLEGGWYCFNRENCDSRYDTMRRLMSSRDWPRTRTGTGILSSQPEENPYWWNANMVFIPYCSSDVWSGASSKSEKNEYAFMGALIIQEVVRELLGRGLSGAKVLLLAGSSAGGTGVLLNVDRVAEQLEKLGYPAIQVRGLADSGWFLDNKQYRHTDCVDTITCAPTEAIRRGIRYWNGVVPERCRRQFQEGEEWNCFFGYKVYPTLRCPVFVVQWLFDEAQLTVDNVHLTGQPVQEGLRLYIQNLGRELRHTLKDVPASFAPACLSHEIIIRSHWTDVQVKGTSLPRALHCWDRSLHDSHKASKTPLKGCPVHLVDSCPWPHCNPSCPTVRDQFTGQEMNVAQFLMHMGFDMQTVAQPQGLEPSELLGMLSNGSISAMVRSVECPPCPAPPVAGPSVFLFPPKPKDTLMISRTPEVTCVVVDVSHEDPEVQFNWYVDGVEVHNAKTKPREEQFNSTFRVVSVLTVVHQDWLNGKEYKCKVSNKGLPAPIEKTISKTKGQPREPQVYTLPPSREEMTKNQVSLTCLVKGFYPSDIAVEWESNGQPENNYKTTPPMLDSDGSFFLYSKLTVDKSRWQQGNVFSCSVMHEALHNHYTQKSLSLSPGK"}}, "key": {"Notum [1]": {"target": "T1, Notum (Homo sapiens, UniProt Q6P988)", "T1 sequence (Q6P988 20-496)": "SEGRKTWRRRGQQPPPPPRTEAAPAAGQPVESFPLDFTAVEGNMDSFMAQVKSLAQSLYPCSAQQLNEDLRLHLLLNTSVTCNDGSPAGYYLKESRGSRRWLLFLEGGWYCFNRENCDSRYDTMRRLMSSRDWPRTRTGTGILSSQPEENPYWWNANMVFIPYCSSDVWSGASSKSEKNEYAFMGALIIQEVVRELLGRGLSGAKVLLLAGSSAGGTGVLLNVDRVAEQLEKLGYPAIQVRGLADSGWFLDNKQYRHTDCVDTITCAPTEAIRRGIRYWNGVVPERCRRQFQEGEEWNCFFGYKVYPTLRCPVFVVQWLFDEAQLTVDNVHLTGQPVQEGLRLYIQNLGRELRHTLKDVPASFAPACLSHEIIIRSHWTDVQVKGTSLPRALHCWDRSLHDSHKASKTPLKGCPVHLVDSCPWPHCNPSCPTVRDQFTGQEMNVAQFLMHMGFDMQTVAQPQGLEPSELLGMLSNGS", "assay": "Bio-layer interferometry on ForteBIO RED", "type": "binding", "conditions": "250, 125 and 62.5 nM antigen", "description": "(§1) Three methods were used to characterize the affinity of humanized SC2.D2.2 relative to its analogous mAb with the murine variable region. First, binding signal was measured for a fixed amount of antibody probed against serial dilutions of antigen in an ELISA format. […] Second, the affinity of murine SC2.D2.2 was measured by Biacore using surface plasmon resonance (SPR) to provide the results set forth in FIG. 32A. Based on a concentration series of 12.5, 6.25, 3.125, 1.5625, 0.78125 nM and using a 1:1 Langmuir binding model, the Kd of the antibody binding to antigen was estimated to be less than 0.1 nM. Long off-rates for this interaction made accurate determination of affinity through kinetics difficult. The murine antibody was then directly compared to the humanized derivative using bio-layer interferometry analysis on a ForteBIO RED (ForteBIO, Inc.) with a concentration series of 250, 125, and 62.5 nM antigen."}, "Notum [2]": {"target": "T1, Notum", "assay": "ELISA, fixed antibody against serial dilutions of antigen", "type": "binding", "description": "as §1"}, "[3]": {"target": "T2, human Notum (recombinant or endogenous; construct not specified at the place of use) (human, UniProt Q6P988 20-496)", "T2 construct": "also called hNotum; human Notum protein", "T2 sequence": "T1 sequence (Q6P988 20-496)", "assay": "bio-layer interferometry (ForteBIO RED), fixed antibody, antigen at 250, 125 and 62.5 nM by the text", "description": "Three methods were used to characterize the affinity of humanized SC2.D2.2 relative to its analogous mAb with the murine variable region. First, binding signal was measured for a fixed amount of antibody probed against serial dilutions of antigen in an ELISA format. Measured signal levels were substantially similar (data not shown). Second, the affinity of murine SC2.D2.2 was measured by Biacore using surface plasmon resonance (SPR) to provide the results set forth in FIG. 32A. […] Long off-rates for this interaction made accurate determination of affinity through kinetics difficult. The murine antibody was then directly compared to the humanized derivative using bio-layer interferometry analysis on a ForteBIO RED (ForteBIO, Inc.) with a concentration series of 250, 125, and 62.5 nM antigen."}, "[4]": {"system": "Wnt3A-mediated induction of luciferase in the 293.TCF cells", "assay": "Wnt3A canonical signaling assay, bioactivity of Notum constructs", "type": "cell-based, human", "excerpt": "To generate a stable population of cells that contain a reporter for the activation of canonical Wnt signaling, HEK 293T cells were transduced with a lentiviral vector, pGreenFirel-TCF (System Biosciences) which encodes a bifunctional GFP and luciferase reporter cassette under the control of a minimal CMV reporter linked to four tandem repeats of the transcriptional response elements for TCF. Transduced cells populations, termed 293.TCF cells, were subsequently used in a Wnt3A canonical signaling assay as follows: 2.5×10^4 293.TCF cells were plated per well of a 96-well tissue culture plate in 50 μL of serum-free DME medium. After 24 hours of serum starvation, 25 μL of various dilutions of conditioned medium (CM) from L/Wnt3A cells (ATCC CRL-2647; Willert, 2003) or undiluted CM from parental L-cells (ATCC CRL-2648) along with 25 μL of DMEM+0.2% FBS were added to each well. Eighteen hours after addition of CM, 100 μL of One-Glo solution (ProMega Corp.) was added to each well. The contents of each well were then mixed thoroughly to lyse the cells, 100 μL of lysate transferred to black 96-well plates, and the luminescence in each well read after 5 mins using a Wallac Victor3 Multilabel Counter (Perkin-Elmer Corp). […] More particularly, as the Wnt3A+ CM media is diluted from 25% down to approximately 3%, activation of the Wnt pathway is reduced with a corresponding decrease in luminescence.\nOnce the luciferase reporter system was established, assays for determining the bioactivity of various Notum modulators were performed as follows. 2.5×10^4 293.TCF cells were plated per well of a 96-well tissue culture plate in 50 μL of serum-free medium. After 23 hours of serum starvation, 25 μL of DMEM+0.2% FBS containing various Notum modulators at various concentrations (e.g., hNotum-His, hNotum-hFc, hNotum-S232A-His, murine Notum-His, murine Notum-hFc, macaque Notum-hFc, control protein-His or control protein-hFc obtained as per Examples 7, 8 and 13 above), were added to the cells. After 1 hour, 25 μL of Wnt3A or control L-cell CM were added to each well. Eighteen hours after addition of CM, 100 μL of One-Glo solution (ProMega Corp.) was added to each well, the contents of each well mixed thoroughly to lyse the cells, 100 μL of lysate transferred to black 96-well plates, and the luminescence read after 5 minutes."}, "[5]": {"system": "mouse lineage-depleted NTX tumor cells from SCRx-CR4", "assay": "Cell survival/proliferation, CellTiterGlo, SCRx-CR4", "type": "cell-based, human", "conditions": "1 or 10 μg/mL, 14 days", "description": "To determine whether Notum protein impacts cell proliferation and/or apoptosis of human colorectal cancer cells, HCT-116 cells or mouse lineage-depleted NTX tumor cells (i.e. human tumor cells) were plated as described below and exposed to recombinant hNotum (e.g. hNotum-His or hNotum-hFc) and anti-Notum antibodies. Cell numbers were then assessed 12-14 days later.\nCells were then incubated for 14 days at 37° C., 5% CO2 and 5% O2 and the number of viable cells was assessed using Promega's CellTiterGlo assay kit per the manufacturer's instructions. For the HCT-116 cell line (a commercially available colorectal tumor cell line), cells were plated at 2,000 cells per well in DMEM+1% FBS, followed 24-hours later by the addition of serum free DMEM containing recombinant human Notum in the presence or absence of monoclonal antibodies SC2.D2.2 or SC2.10B3. HCT-116 cells were then incubated for 12 days at 37° C., 5% CO2 and cell viability was assessed with Promega's CellTiterGlo assay kit. Higher readings are indicative of higher viable cell counts."}, "rhWnt3A": {"target": "T3, rhWnt3A (Homo sapiens, UniProt P56704)", "T3 construct": "purchased R & D Systems", "T3 sequence (P56704 19-352)": "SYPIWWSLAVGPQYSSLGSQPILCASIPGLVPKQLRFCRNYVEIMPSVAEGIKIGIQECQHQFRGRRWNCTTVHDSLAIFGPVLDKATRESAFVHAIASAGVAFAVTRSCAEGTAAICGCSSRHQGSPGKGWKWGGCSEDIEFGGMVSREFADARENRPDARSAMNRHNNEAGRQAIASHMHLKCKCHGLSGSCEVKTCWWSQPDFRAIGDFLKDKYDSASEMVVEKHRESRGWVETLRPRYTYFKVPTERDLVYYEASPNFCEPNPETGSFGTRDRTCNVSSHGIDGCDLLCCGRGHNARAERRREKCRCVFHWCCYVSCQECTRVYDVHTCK", "assay": "Triton X114 partition assay, delipidation of rhWnt3A by Notum", "type": "biochemical", "conditions": "overnight incubation", "excerpt": "If Notum directly acts upon Wnt3A to delipidate the protein, this cleavage should result in a change in the hydrophobicity of the protein, which can be measured by a change in its partitioning behavior between aqueous and detergent phases in a Triton X114 partition assay (Bordier, 1981, PMID: 6257680): lipidated Wnt3A will be found in the […], whereas delipidated Wnt3A should show up in the […] (Willert et al., 2003, PMID: 12717451). […] An equal volume of 4.5% Triton X114 was added to the mixture, the mixture incubated on ice for 5 minutes, then at 37° C. for five minutes, before separating the phases using centrifugation at 2000×g for five minutes at room temperature. Following separation each sample was adjusted to normalize the ionic strength and Triton X114 content before analyzing the aliquots by PAGE electrophoresis. After running the gel the protein bands were transferred to a membrane for immunoblotting using an anti-rhWnt3A antibody (Cell Signaling Technology). Bands were visualized using SuperSignal West Pico Chemiluminescent substrate (Thermo Fisher Scientific)."}}}
{"molecule": "B1", "values": [{"measurement": "affinity, binding curves", "setting": "Notum [1]", "value": "excellent affinity"}, {"measurement": "binding signal relative to antibody with murine variable region", "setting": "Notum [2]", "value": "substantially similar"}, {"measurement": "binding result", "setting": "[3]", "value": "binds"}]}
{"molecule": "B2", "values": [{"measurement": "antagonism of Wnt3A-mediated induction of luciferase", "setting": "[4]", "value": "functionally antagonize"}, {"measurement": "increase in cell counts", "setting": "[5]", "value": "20-45%"}, {"measurement": "redistribution of rhWnt3A between Triton X114 and aqueous phase", "setting": "rhWnt3A", "value": "leads to a redistribution of the rhWnt3A into the aqueous phase"}]}
